Data taken from US20090208538A1 (published 2009).

Tests used:
[1] = target: T1, cdr2 (cerebellar degeneration-related 2 protein), human peptide on HLA-A*02:01 (human); experiment: multimer staining
T1 peptide: LLEEMFLTV

[2] = target: T2, cdr2, human peptide on HLA-A*02:01 (human); experiment: cytokine release
T2 peptide: SLLEEMFLT

[3] = target: T3, cdr2, human peptide on HLA-A*02:01 (human); experiment: cytokine release
T3 peptide: SLLEEMFLTV

B1: cdr2 TCR (clone 11/12) (TCR, V domains shown)
Valpha: QQQVRQSPQSLTVWEGGTTVLTCSYEDSTFNYFPWYQQFPGEGPALLISILSVSDKKEDGRFTTFFNKREKKLSLHIIDSQPGDSATYFCAASGASGGSNAKLTFGKGTKLSVKS
Vbeta: DSGVVQSPRHIIKEKGGRSVLTCIPISGHSNVVWYQQTLGKELKFLIQHYEKVERDKGFLPSRFSVQQFDDYHSEMNMSALELEDSAMYFCASSLGGWAEQFFGPGTRLTVL
[1]
  binding result: recognises
[2]
  binding result: no recognition
[3]
  binding result: recognises
